Experiments:
[1] = Size-exclusion chromatography on Superdex Peptide 10/300GL column; format: physicochemical; conditions: for formation of aggregates by size-exclusion chromatography: peptide in PBS, Superdex Peptide 10/300GL, 0.6 ml/min; for Aggregation?: size-exclusion chromatography, peptide dissolved in PBS
Procedure: Approximately 200 μg of each peptide X (40 amino acids), X-1 (28 amino acids), peptide A (161 amino acids), P11 (11 amino acids), P16 (16 amino acids), P21 (21 amino acids, P16-2 (16 amino acids, scrambled sequence control), X-3 (16 amino acids) and X-4 (11 amino acids) were dissolved in phosphate-buffered saline (PBS) and loaded onto a Superdex Peptide 10/300GL column. The column was eluted with PBS at a flow rate of 0.6 mL/min and eluents were analyzed for peptide content by measuring relative absorbance at a wavelength of 215 nm. (FIGS. 3A and 3B) The data is plotted with relative absorbance (Y-axis) against elution volume (X-axis). Peptides 1-9 are color coded (A—peptides (1) to (5); B (peptides (6) to (9)). As shown on panel A, peptide X (peptide 1, black line) elution profile indicated two major peaks at approximately 8 mL and 11 mL which correspond to molecular weights greater than 12.4 kDa. The theoretical molecular weight of peptide X is 4.7 kDa which is expected to elute from the column at approximately 15 mL. Under the conditions tested, peptide X existed as high molecular weight aggregates with minimal soluble (monomeric) form. On the other hand, P16 (peptide 5, green line) elution profile indicated a broad peak between 14-22 mL which is expected to contain peptides of between 0.1 and 6 kDa and is consistent with its theoretical molecular weight of 2.01 kDa.
FIG. 4 illustrates the standard curve used for size-exclusion chromatography of standard peptides using the Superdex Peptide 10/300 GL column (results provided in FIG. 3). A pool of standard peptides of various molecular weights (1. cytochrome c (Mr 12.384 kDa) 1 mg/mL; 2. aprotinin (Mr 6.512 kDa) 2 mg/mL; 3. vitamin B12 (Mr 1.355 kDa) 0.1 mg/mL; 4. (Gly)3 (Mr 0.189 kDa) 0.1 mg/mL; 5. Gly (Mr 0.075 kDa) 7.8 mg/mL) were subjected to size-exclusion chromatography using the Superdex Peptide 10/300 GL column (flow rate 0.5 ml/min at room temperature, sample volume of 50 μL, eluent 0.05M phosphate, 0.15 M NaCl, ph 7.0). The resulting chromatogram (absorbance at 215 nm (in mAU, left Y axis) and conductivity (in mS/cm, right Y axis, in function of volume of elution (in mL)) indicates the elution profiles of the above peptides with high MW peptides eluting in earlier fractions and lower MW peptides eluting in later fractions as expected. The molecular weights of peptides were plotted against elution volume generating a standard curve (not shown).
More specifically, approximately […] of each peptide X (40 amino acids), X-1 (28 amino acids), peptide A (161 amino acids), P11 (11 amino acids), P16 (16 amino acids), P21 (21 amino acids, P16-2 (16 amino acids, scrambled sequence control), X-3 (16 amino acids) and X-4 (11 amino acids) were dissolved in phosphate-buffered saline (PBS) and loaded onto a Superdex Peptide 10/300GL column. The column was eluted with PBS at a flow rate of 0.6 ml/min and eluants were analyzed for peptide content by measuring relative absorbance at a wavelength of 215 nm. The data were plotted with relative absorbance (Y-axis) against elution volume (X-axis). […] The theoretical molecular weight of peptide X is 4.7 kDa which is expected to elute from the column at approximately 15 mL. […] P16 (peptide 5) elution profile indicated a peak between 14-22 mL which was expected to contain peptides of between 0.1 and 6 kDa and is consistent with its theoretical molecular weight of 2.01 kDa.
More specifically, a pool of standard proteins of various molecular weights were subjected to size-exclusion chromatography using the Superdex Peptide 10/300 GL column. The resulting chromatogram indicated the elution profiles of the peptides with high molecular weight peptides eluting in earlier fractions and lower molecular weight peptides eluting in later fractions as expected. The molecular weights of peptides were plotted against elution volume generating a standard curve (not shown) and was used to calculate molecular weights of the CD109-based peptides. […]

[2] = system: TGF-β-induced migration of squamous cell carcinoma (A431) cells; test: Scratch (wound closure) migration assay, A431 cells; format: cell-based; conditions: 100 pM TGF-β1, 24 hours, P16 concentrations as indicated (FIG. 27)
Procedure: FIG. 10A and FIG. 10B illustrate that peptides B, E and X-1 inhibit TGF-β-induced cellular migration of A431 cells in vitro. Results are shown prior to treatment (0 hr, top panels) and after treatment (24 hr, bottom panels) for each of the peptides used. (See FIG. 2 and Table 1 for the amino acid sequence identity of the peptides).
A431 cells were grown to 80-90% confluence and serum-starved overnight. The next day, cells were scratched with a plastic pipette tip (time 0 hour) and then left untreated or treated for 24 hours with 100 pM TGF-β1 alone or in the presence of P16 as indicated. (FIG. 27A) Digital images were captured at 0 h and 24 h using an EVOS XL Core microscope. (FIG. 27B) Micrographs were subsequently quantitated to determine the percentage of the wound area that had closed following 24 hours in the presence or absence of P16, as indicated.
Cells were scratched with a pipette tip and treated without or with 100 pM TGF-b1 alone or in the presence of 10 nM Peptide A or Peptide A1 (C31S mutant). Pictures were taken at 0 and 24 hrs. Peptide A but not Peptide A1 inhibits TGF-b-induced migration in A431 cells. Peptide A contains monomeric and dimeric forms whereas Peptide A1 contains a C31S mutation to prevent intermolecular disulfide bond formation so that it forms monomers only.
Squamous cell carcinoma (A431) or breast cancer (MDA-MB-231) cells were grown to 80-90% confluence and serum-starved overnight. The next day, cells were scratched with a plastic pipette tip (time 0 hour) and then left untreated or treated for 24 hours with 100 pM TGF-β1 alone or in the presence of 10 nM peptide B (100 aa), E (67 aa), or X1 (P28, 28 aa). Digital images were captured at 0 h and 24 h (20× magnification) using an EVOS XL Core microscope.

Sequence	formation of aggregates by size-exclusion chromatography [1]	Aggregation? [1]	inhibition of A431 cell migration, dose-dependent [2]	molecular weights corresponding to the elution peaks ([1]; PBS, theoretical MW peptide X 4.7 kDa, P16 2.01 kDa)
ETWIWLDTNMGSRIYQ [Peptide P16]	did not	Not aggregated	inhibit	–
LGSSPHVRKHFPETWIWLDTNMGSRIYQEFEVTVPDSITS (Peptide X)	formed aggregates	Aggregated	–	greater than 12.4 kDa

— patent US11787850B2, “Peptidic TGF-beta antagonists” (priority 2015, dated 2023)
